Measurements from patent US20260022171A1.

How the values were obtained:
[1] = target: cynomolgus monkey CD200R1 on cells (cynomolgus monkey); experiment: flow cytometry, biotinylated antibody on cynomolgus CD4+ T cells (PBMC), streptavidin-PE; concentration not shown
[2] = target: cynomolgus monkey CD200R1 on cells (cynomolgus monkey); experiment: flow cytometry, biotinylated antibody on cynomolgus CD8+ T cells (PBMC), streptavidin-PE; concentration not shown
[3] = target: human CD200R1 on cells (human) (UniProt Q8TD46); experiment: cell-based or functional assay
[4] = target: human CD200R1 on cells (human) (UniProt Q8TD46); experiment: flow cytometry, blocking: U937 cells stably expressing hu-CD200R1 incubated with the antibody, then with 55 nM huCD200-Fc-Flag, detected with anti-Flag PE (MFI)

hu-CD200-Fc (Fc fusion), sequence (chain): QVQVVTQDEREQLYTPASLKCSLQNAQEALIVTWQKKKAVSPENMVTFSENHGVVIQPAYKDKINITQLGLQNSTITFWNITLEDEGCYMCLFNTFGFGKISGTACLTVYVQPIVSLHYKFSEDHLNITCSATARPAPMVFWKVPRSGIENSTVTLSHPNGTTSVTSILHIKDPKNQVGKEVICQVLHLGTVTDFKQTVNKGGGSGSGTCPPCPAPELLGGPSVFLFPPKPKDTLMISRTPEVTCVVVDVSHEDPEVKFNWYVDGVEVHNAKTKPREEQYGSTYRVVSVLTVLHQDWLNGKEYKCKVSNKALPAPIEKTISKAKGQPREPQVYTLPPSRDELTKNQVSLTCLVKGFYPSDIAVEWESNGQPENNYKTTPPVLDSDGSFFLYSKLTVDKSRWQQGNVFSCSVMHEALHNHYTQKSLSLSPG

Mean:Comp-FL2-A [1]	Mean:Comp-FL2-A [2]	Substance	pDok2 induction, western blot, U937 cells expressing CD200R1 [3]	IC50 [4]
403	411	IgG Control (antibody)		
		hu-CD200-Fc (Fc fusion)	200 nM	
566	425	OX108 (commercial anti-CD200R1 antibody)	33 nM	2.8 nM
